In patent US12099068B2, “Biomarkers for graft-versus-host disease” (Incyte Corporation, priority 2018, dated 2024):

B1: STAMPB (protein, UniProt O95630 1-424, looked up)
STAM-binding protein: MSDHGDVSLPPEDRVRALSQLGSAVEVNEDIPPRRYFRSGVEIIRMASIYSEEGNIEHAFILYNKYITLFIEKLPKHRDYKSAVIPEKKDTVKKLKEIAFPKAEELKAELLKRYTKEYTEYNEEKKKEAEELARNMAIQQELEKEKQRVAQQKQQQLEQEQFHAFEEMIRNQELEKERLKIVQEFGKVDPGLGGPLVPDLEKPSLDVFPTLTVSSIQPSDCHTTVRPAKPPVVDRSLKPGALSNSESIPTIDGLRHVVVPGRLCPQFLQLASANTARGVETCGILCGKLMRNEFTITHVLIPKQSAGSDYCNTENEEELFLIQDQQGLITLGWIHTHPTQTAFLSSVDLHTHCSYQMMLPESVAIVCSPKFQETGFFKLTDHGLEEISSCRQKGFHPHSKDPPLFCSCSHVTVVDRAVTITDLR
B2: FAM3C (protein, UniProt Q92520 25-227, looked up)
Protein FAM3C: QVFEIKMDASLGNLFARSALDTAARSTKPPRYKCGISKACPEKHFAFKMASGAANVVGPKICLEDNVLMSGVKNNVGRGINVALANGKTGEVLDTKYFDMWGGDVAPFIEFLKAIQDGTIVLMGTYDDGATKLNDEARRLIADLGSTSITNLGFRDNWVFCGGKGIKTKSPFEQHIKNNKDTNKYEGWPEVVEMEGCIPQKQD
B3: TIGAR (protein, UniProt Q9NQ88 1-270, looked up)
Fructose-2,6-bisphosphatase …: MARFALTVVRHGETRFNKEKIIQGQGVDEPLSETGFKQAAAAGIFLNNVKFTHAFSSDLMRTKQTMHGILERSKFCKDMTVKYDSRLRERKYGVVEGKALSELRAMAKAAREECPVFTPPGGETLDQVKMRGIDFFEFLCQLILKEADQKEQFSQGSPSNCLETSLAEIFPLGKNHSSKVNSDSGIPGLAASVLVVSHGAYMRSLFDYFLTDLKCSLPATLSRSELMSVTPNTGMSLFIINFEEGREVKPTVQCICMNLQDHLNGLTETR
B4: SNAP23 (protein, UniProt O00161 1-211, looked up)
Synaptosomal-associated …: MDNLSSEEIQQRAHQITDESLESTRRILGLAIESQDAGIKTITMLDEQKEQLNRIEEGLDQINKDMRETEKTLTELNKCCGLCVCPCNRTKNFESGKAYKTTWGDGGENSPCNVVSKQPGPVTNGQLQQPTTGAASGGYIKRITNDAREDEMEENLTQVGSILGNLKDMALNIGNEIDAQNPQIKRITDKADTNRDRIDIANARAKKLIDS
B5: MIF (protein, UniProt P14174 2-115, looked up)
Macrophage migration …: PMFIVNTNVPRASVPDGFLSELTQQLAQATGKPPQYIAVHVVPDQLMAFGGSSEPCALCSLHSIGKIGGAQNRSYSKLLCGLLAERLRISPDRVYINYYDMNAANVGWNNSTFA
B6: KLK10 (protein, UniProt O43240 31-276, looked up)
Kallikrein-10: AEAALLPQNDTRLDPEAYGSPCARGSQPWQVSLFNGLSFHCAGVLVDQSWVLTAAHCGNKPLWARVGDDHLLLLQGEQLRRTTRSVVHPKYHQGSGPILPRRTDEHDLMLLKLARPVVLGPRVRALQLPYRCAQPGDQCQVAGWGTTAARRVKYNKGLTCSSITILSPKECEVFYPGVVTNNMICAGLDRGQDPCQSDSGGPLVCDETLQGILSWGVYPCGSAQHPAVYTQICKYMSWINKVIRSN
B7: AGR2 (protein, UniProt O95994 21-175, looked up)
Anterior gradient protein 2 …: RDTTVKPGAKKDTKDSRPKLPQTLSRGWGDQLIWTQTYEEALYKSKTSNKPLMIIHHLDECPHSQALKKVFAENKEIQKLAEQFVLLNLVYETTDKHLSPDGQYVPRIMFVDPSLTVRADITGRYSNRLYAYEPADTALLLDNMKKALKLLKTEL
B8: NUB1 (protein, UniProt Q9Y5A7 1-615, looked up)
NEDD8 ultimate buster 1: MAQKKYLQAKLTQFLREDRIQLWKPPYTDENKKVGLALKDLAKQYSDRLECCENEVEKVIEEIRCKAIERGTGNDNYRTTGIATIEVFLPPRLKKDRKNLLETRLHITGRELRSKIAETFGLQENYIKIVINKKQLQLGKTLEEQGVAHNVKAMVLELKQSEEDARKNFQLEEEEQNEAKLKEKQIQRTKRGLEILAKRAAETVVDPEMTPYLDIANQTGRSIRIPPSERKALMLAMGYHEKGRAFLKRKEYGIALPCLLDADKYFCECCRELLDTVDNYAVLQLDIVWCYFRLEQLECLDDAEKKLNLAQKCFKNCYGENHQRLVHIKGNCGKEKVLFLRLYLLQGIRNYHSGNDVEAYEYLNKARQLFKELYIDPSKVDNLLQLGFTAQEARLGLRACDGNVDHAATHITNRREELAQIRKEEKEKKRRRLENIRFLKGMGYSTHAAQQVLHAASGNLDEALKILLSNPQMWWLNDSNPETDNRQESPSQENIDRLVYMGFDALVAEAALRVFRGNVQLAAQTLAHNGGSLPPELPLSPEDSLSPPATSPSDSAGTSSASTDEDMETEAVNEILEDIPEHEEDYLDSTLEDEEIIIAEYLSYVENRKSATKKN
B9: LAT2 (protein, UniProt Q9GZY6 1-243, looked up)
Linker for activation of …: MSSGTELLWPGAALLVLLGVAASLCVRCSRPGAKRSEKIYQQRSLREDQQSFTGSRTYSLVGQAWPGPLADMAPTRKDKLLQFYPSLEDPASSRYQNFSKGSRHGSEEAYIDPIAMEYYNWGRFSKPPEDDDANSYENVLICKQKTTETGAQQEGIGGLCRGDLSLSLALKTGPTSGLCPSASPEEDEESEDYQNSASIHQWRESRKVMGQLQREASPGPVGSPDEEDGEPDYVNGEVAATEA

System: plasma proteins
Assay: Plasma proteins modulated between baseline and day 28 in responders (CR, VGPR, PR; n = 19), Example 6 (Table 13)
Assay type: in vivo, human
Conditions: plasma protein (OLINK NPX); responders (CR, VGPR, PR; n = 19); itacitinib 200 mg or 300 mg QD with corticosteroids; day 28 vs baseline
Outline: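 Longitudinal comparison, day 28 versus baseline, with steroid-naive (N=10) and steroid-refractory (N=18) patients combined. Proteins measured by OLINK proximity extension, log2 normalized protein expression. Differences tested by t tests, ANOVA, Pearson correlation, P<0.05 significant.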

Compared with B1, B3 is lower in “Fold Change, Decreased Expression from Baseline to Day 28” value (“Fold Change, Decreased Expression” below): −1.3721 for the first, −1.3733 for the second.

Going from B4 to B5, the “Fold Change, Decreased Expression” value falls from −1.5751 to −1.7486.

First: B8
Second: B9
The “Fold Change, Decreased Expression” value of the first is higher: −1.4966 for the first, −1.7755 for the second.

Going from B2 to B6, the “Fold Change, Increased Expression from Baseline to Day 28” value falls from 1.3109 to 1.2102.

B7 was tested, and the “Fold Change, Increased Expression from Baseline to Day 28” value was 1.4472.
